Measurements taken from patent publication US11939390B2, “Methods of treating multiple myeloma” (Sanofi-Aventis U.S. LLC, priority 2019, dated 2024).

How the values were obtained:
[1] = test system: anti-isatuximab antibodies; assay: Immunogenicity: antidrug antibodies (ADA); set-up: species or system human; conditions: in vivo
Description: The presence of antidrug antibodies (ADA, i.e., anti-isatuximab antibodies) in patients in the IPd arm were assessed throughout the study.

[2] = Population pharmacokinetics of isatuximab; assay type: in vivo, human; conditions: patients with renal impairment vs those without
Excerpt: Blood samples were collected from all patients treated with […] to assess the pharmacokinetic profile of isatuximab using population pharmacokinetic approach.

With “isatuximab: anti-CD38 antibody, CAS Registry Number 1461640-62-9; heavy chain SEQ ID NO: 10, light chain SEQ ID NO: 11” as the substance, how does the “anti-drug antibodies (ADA)” value [1] read?
The value was “No positive ADA”.

What about the Pharmacokinetic parameters [2] of the same substance?
The Pharmacokinetic parameters was “comparable between patients with renal impairment and those without”.
